# B1: full-length transformed AFP molecule: full-length alpha-fetoprotein transformed by incubation with estradiol to an inhibitor of estrogen-stimulated growth (protein, UniProt P02771 1-609, looked up)
# chain: MKWVESIFLIFLLNFTESRTLHRNEYGIASILDSYQCTAEISLADLATIFFAQFVQEATYKEVSKMVKDALTAIEKPTGDEQSSGCLENQLPAFLEELCHEKEILEKYGHSDCCSQSEEGRHNCFLAHKKPTPASIPLFQVPEPVTSCEAYEEDRETFMNKFIYEIARRHPFLYAPTILLWAARYDKIIPSCCKAENAVECFQTKAATVTKELRESSLLNQHACAVMKNFGTRTFQAITVTKLSQKFTKVNFTEIQKLVLDVAHVHEHCCRGDVLDCLQDGEKIMSYICSQQDTLSNKITECCKLTTLERGQCIIHAENDEKPEGLSPNLNRFLGDRDFNQFSSGEKNIFLASFVHEYSRRHPQLAVSVILRVAKGYQELLEKCFQTENPLECQDKGEEELQKYIQESQALAKRSCGLFQKLGEYYLQNAFLVAYTKKAPQLTSSELMAITRKMAATAATCCQLSEDKLLACGEGAADIIIGHLCIRHEMTPVNPGVGQCCTSSYANRRPCFSSLVVDETYVPPAFSDDKFIFHKDLCQAQGVALQTMKQEFLINLVKQKPQITEEQLEAVIADFSGLLEKCCQGQEQEVCFAEEGQKLISKTRAALGV
# modifications: full-length estradiol-transformed
# Legend:
# [1] = Retention of inhibitory activity on storage; type: physicochemical; details: transformed human AFP preparation
# [2] = system: estrogen-stimulated growth of mouse uterus; details: full-length transformed AFP molecule, see references cited; cited from earlier work
molecule,measurement,setting,value
B1,time activity is retained,[1],one
same,inhibition of estrogen-stimulated growth,[2],20-40%
